The values below come from PMC8837555, “CRISPR and biochemical screens identify MAZ as a cofactor in CTCF-mediated insulation at Hox clusters”.

The data set deals with T1, FLAG-MAZ (Mus musculus, UniProt P56671 1-477).
T1 sequence: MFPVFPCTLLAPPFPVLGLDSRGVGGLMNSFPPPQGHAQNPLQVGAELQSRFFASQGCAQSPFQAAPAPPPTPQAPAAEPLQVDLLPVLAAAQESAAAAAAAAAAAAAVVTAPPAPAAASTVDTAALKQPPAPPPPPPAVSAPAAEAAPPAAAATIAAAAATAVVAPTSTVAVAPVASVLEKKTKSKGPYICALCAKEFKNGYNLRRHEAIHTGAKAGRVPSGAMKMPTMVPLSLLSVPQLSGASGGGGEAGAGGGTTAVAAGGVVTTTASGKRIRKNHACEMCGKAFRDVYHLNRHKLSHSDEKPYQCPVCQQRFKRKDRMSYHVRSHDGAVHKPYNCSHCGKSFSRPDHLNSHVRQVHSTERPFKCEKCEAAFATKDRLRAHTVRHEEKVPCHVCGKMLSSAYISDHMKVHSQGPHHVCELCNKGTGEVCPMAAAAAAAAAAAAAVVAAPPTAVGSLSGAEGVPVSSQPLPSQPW
Kind of data set: EMSA; 1 mM ZnSO4, 5 mM MgCl2, salmon sperm DNA; 25 mM HEPES (pH not stated), 50 mM NaCl, 5% glycerol, 5 mM MgCl2, 1 mM ZnSO4, 2 μg salmon sperm DNA, 40 pM probe, 0.25-0.75 μg MAZ, 4 h at 30 °C; 5% gel, 0.25x. The conditions noted are these: protein: recombinant; tags: FLAG (CβF vector); label: 32P (T4 PNK); blunt.

B1: maz.hoxd48 (WT) (dsDNA)
DNA 1: CCTGGGTGGGAGGGGAATGGGAGGACACAAGAGCCACCCGTTCTTCTGCCCCGCCTTCCACCTCAG
DNA 2: CTGAGGTGGAAGGCGGGGCAGAAGAACGGGTGGCTCTTGTGTCCTCCCATTCCCCTCCCACCCAGG
Turning to B1, the binding result is on record as “binds”.

B2: maz.hoxa56.WT (dsDNA)
DNA 1: GGAGTTGGGTGGAGGCAAGAGGGGTGGCGCGCGCGCCCTG
DNA 2: CAGGGCGCGCGCGCCACCCCTCTTGCCTCCACCCAACTCC
Turning to B2, the binding result is recorded as “binds”.
